From patent US20260115299A1, “CALSEQUESTRIN-BASED METAL ION REACTIVE PARTICLE AND USES THEREOF” (TOOLBIO. CO.,LTD., priority 2022, published 2026)

Key:
HaCaT cells [1] = assay: In vitro migration test (scratch); type: cell-based; conditions: 10 nM, 24-hour intervals, compared with native KGF
Method: HaCaT cells were aliquoted into 24-well plates at a specific cell/well and incubated at 37° C. in a 5% CO2 incubator with 10% FBS and 1% P/S-DMEM for one day. Starvation was performed with FBS Free DMEM for one day. Cells were scratched in a straight line using a 1000 ? pipette tip. After washing twice with DPBS, CSQ-KGF, CSQ, and KGF were added to FBS Free DMEM at a concentration of 10 nM, and the sample was divided so that the total volume became 500 ? . While culturing in a 5% CO2 incubator at 37° C. scratches were observed using a phase-contrast microscope at 24-hour intervals from […], and photographs were taken. The extent of wound closure was compared by analyzing the scratch area of the captured images using ImageJ.

HaCaT cells [2] = assay: In vitro proliferation test (XTT); type: cell-based; conditions: 2.5 nM, 2 days, compared with native KGF
Method: HaCaT cells in 96-well plates were aliquoted at a specific cell/well and incubated at 37° C. in a 5% CO2 incubator with 10% FBS and 1% P/S-DMEM for one day. Starvation was performed with FBS Free DMEM for one day. After washing twice with DPBS, CSQ-KGF, CSQ, and KGF were added to FBS-free DMEM at a concentration of 2.5 nM, and the sample was divided so that the total volume became 200 ? . After incubation in an incubator for 2 days, XTT cell availability kit reagents were aliquoted, and then 450 nm absorbance was determined with a microplate reader.

B1: CSQ-KGF: fusion protein of human calsequestrin CSQ1 (SEQ ID No. 1) and KGF (SEQ ID No. 12) (protein)
chain: QEGLDFPEYDGVDRVINVNAKNYKNVFKKYEVLALLYHEPPEDDKASQRQFEMEELILELAAQVLEDKGVGFGLVDSEKDAAVAKKLGLTEVDSMYVFKGDEVIEYDGEFSADTIVEFLLDVLEDPVELIEGERELQAFENIEDEIKLIGYFKSKDSEHYKAFEDAAEEFHPYIPFFATFDSKVAKKLTLKLNEIDFYEAFMEEPVTIPDKPNSEEEIVNFVEEHRRSTLRKLKPESMYETWEDDMDGIHIVAFAEEADPDGFEFLETLKAVAQDNTENPDLSIIWIDPDDFPLLVPYWEKTFDIDLSAPQIGVVNVTDADSVWMEMDDEEDLPSAEELEDWLEDVLEGEINTEDDDDDDDDMCNDMTPEQMATNVNCSSPERHTRSYDYMEGGDIRVRRLFCRTQWYLRIDKRGKVKGTQEMKNNYNIMEIRTVAVGIVAIKGVESEFYLAMNKEGKLYAKKECNEDCNFKELILENHYNTYASAKWTHNGGEMFVALNQKGIPVRGKKTKKEQKTAHFLPMAIT
For B1, the “migration efficacy (extent of wound closure, scratch area)” value (HaCaT cells [1]) was “same efficacy as native KGF” and the “proliferation efficacy (450 nm absorbance, XTT)” value (HaCaT cells [2]) was “same efficacy as native KGF”.
